Source: patent publication US7244606B2, “Modified BACE” (Elan Pharmaceuticals, Inc., priority 2002, dated 2007)
Values joined by “and” are separate entries in the source; they are usually repeats but may differ in a detail not shown here. Equal entries are not always repeated.

Legend:
[1] = test system: substrate S-1 (SEQ ID NO: 10); test: BACE activity assay: cleavage of substrate S-1, HPLC tryptophan fluorescence peak area; assay type: biochemical; conditions: for Activity Assays (Fluorescence Peak Area): 50 μl BACE sample containing 5–10 pmoles protein, 5 μl 1 mM substrate S-1, NaOAc pH 5.0, 1–2 hours at 37° C.
Experimental: The activity of P33K-BACE expressed in E. coli according the above Examples was compared to the activity of human BACE prepared as above without the P33K mutation, and to human BACE expressed in CHO cells.
To assay for BACE activity, the following activity assay conditions were utilized, unless specifically indicated otherwise: 20 μl 1 M sodium acetate (NaOAc), pH 5.0; 125 μl H2O; 50 μl BACE sample containing 5–10 pmoles protein; and 5 μl 1 mM substrate S-1 (SEQ ID NO: 10).
The 200 μl assay reaction was incubated for 1–2 hours at 37° C. Activity was expressed as fluorescence peak area generated by the liberation of a fluorescent (Tryptophan fluorescence) product upon cleavage of Substrate S-1 by recombinant BACE. The reaction was stopped with 100 μl of 4% TFA in H2O. In order to separate the cleavage products and thereby detect activity of recombinant BACE, 50 microliters of the reaction mixture was injected into a Hewlett Packard Model 1100 HPLC equipped with an Alltech Rocket™ column (7 mm i.d., ×53 mm length, C18, 3 μm) pre-equilibrated with 88% Reagent A (0.1% TFA in water), 12% Reagent B (0.1% TFA in acetonitrile). The flow rate over this column was 3 ml per minute.

polypeptide substrate = conditions: assayed with a polypeptide substrate; cited from earlier work

Molecule	Activity Assays (Fluorescence Peak Area) [1]	activity compared with BACE ([1]; result in words)	k(cat)/K(m), fold less than β-secretase (polypeptide substrate)
CHO BACE: human BACE construct Asp2-2L-TM-His6 expressed in CHO cells; 50:50 mixture of two isoforms (control) (protein) TQHGIRLPLRSGLGGAPLGLRLPRETDEEPEEPGRRGSFVEMVDNLRGKSGQGYYVEMTVGSPPQTLNILVDTGSSNFAVGAAPHPFLHRYYQRQLSSTYRDLRKGVYVPYTQGKWEGELGTDLVSIPHGPNVTVRANIAAITESDKFFINGSNWEGILGLAYAEIARPDDSLEPFFDSLVKQTHVPNLFSLQLCGAGFPLNQSEVLASVGGSMIIGGIDHSLYTGSLWYTPIRREWYYEVIIVRVEINGQDLKMDCKEYNYDKSIVDSGTTNLRLPKKVFEAAVKSIKAASSTEKFPDGFWLGEQLVCWQAGTTPWNIFPVISLYLMGEVTNQSFRITILPQQYLRPVEDVATSQDDCYKFAISQSSTGTVMGAVIMEGFYVVFDRARKRIGFAVSACHVHDEFRTAAVEGPFVTLDMEDCGYNIPQTDESHHHHHH	83.32 and 85.20 and 78.07		
E. Coli P33K-BACE: recombinant human BACE with proline to lysine mutation at position 33, terminated at S432, expressed in E. coli and refolded (protein, listed as Homo sapiens, Amino acid sequence of human BACE with P33K mutation.) TQHGIRLPLRSGLGGAPLGLRLPRETDEEPEEKGRRGSFVEMVDNLRGKSGQGYYVEMTVGSPPQTLNILVDTGSSNFAVGAAPHPFLHRYYQRQLSSTYRDLRKGVYVPYTQGKWEGELGTDLVSIPHGPNVTVRANIAAITESDKFFINGSNWEGILGLAYAEIARPDDSLEPFFDSLVKQTHVPNLFSLQLCGAGFPLNQSEVLASVGGSMIIGGIDHSLYTGSLWYTPIRREWYYEVIIVRVEINGQDLKMDCKEYNYDKSIVDSGTTNLRLPKKVFEAAVKSIKAASSTEKFPDGFWLGEQLVCWQAGTTPWNIFPVISLYLMGEVTNQSFRITILPQQYLRPVEDVATSQDDCYKFAISQSSTGTVMGAVIMEGFYVVFDRARKRIGFAVSACHVHDEFRTAAVEGPFVTLDMEDCGYNIPQTDES	38.41 and 26.50 and 32.84	essentially the same activity of BACE	
β-secretase with the pro-segment intact: β-secretase with the pro-segment intact, from Shi et al., 2001 (protein, UniProt P56817 22-501, looked up, pro-form) pro-form: TQHGIRLPLRSGLGGAPLGLRLPRETDEEPEEPGRRGSFVEMVDNLRGKSGQGYYVEMTVGSPPQTLNILVDTGSSNFAVGAAPHPFLHRYYQRQLSSTYRDLRKGVYVPYTQGKWEGELGTDLVSIPHGPNVTVRANIAAITESDKFFINGSNWEGILGLAYAEIARPDDSLEPFFDSLVKQTHVPNLFSLQLCGAGFPLNQSEVLASVGGSMIIGGIDHSLYTGSLWYTPIRREWYYEVIIVRVEINGQDLKMDCKEYNYDKSIVDSGTTNLRLPKKVFEAAVKSIKAASSTEKFPDGFWLGEQLVCWQAGTTPWNIFPVISLYLMGEVTNQSFRITILPQQYLRPVEDVATSQDDCYKFAISQSSTGTVMGAVIMEGFYVVFDRARKRIGFAVSACHVHDEFRTAAVEGPFVTLDMEDCGYNIPQTDESTLMTIAYVMAAICALFMLPLCLMVCQWRCLRCLRQQHDDFADDISLLK			2.3 fold
E. Coli BACE: human BACE prepared as above in E. coli without the P33K mutation (protein) MASMTGGQQMGRGSMAGVLPAHGTQHGIRLPLRSGLGGAPLGLRLPRETDEEPEEPGRRGSFVEMVDNLRGKSGQGYYVEMTVGSPPQTLNILVDTGSSNFAVGAAPHPFLHRYYQRQLSSTYRDLRKGVYVPYTQGKWEGELGTDLVSIPHGPNVTVRANIAAITESDKFFINGSNWEGILGLAYAEIARPDDSLEPFFDSLVKQTHVPNLFSLQLCGAGFPLNQSEVLASVGGSMIIGGIDHSLYTGSLWYTPIRREWYYEVIIVRVEINGQDLKMDCKEYNYDKSIVDSGTTNLRLPKKVFEAAVKSIKAASSTEKFPDGFWLGEQLVCWQAGTTPWNIFPVISLYLMGEVTNQSFRITILPQQYLRPVEDVATSQDDCYKFAISQSSTGTVMGAVIMEGFYVVFDRARKRIGFAVSACHVHDEFRTAAVEGPFVTLDMEDCGYNIPQTDES	31.03 and 45.80 and 31.86		
